Consider 15 sequences from a protein production outcome set (Wang et al. 2014).

The data set is described as follows: label from the status in PepcDB records.

As for “MTTTFEFLQPRIHGFATCCSSNSLLYSKASRFFNDRCRVYRQNPNRFVSNSITLPLQKKQVTVLRNHERFNLWDGFSRKKSRLVVNCQEDDQNESSSEEEESSQSTPAKSERKREKKEDKVWWSKGKKWQWQPIIQAQGIGVLLLQLSVVMFVMRLLRPGIPLPGSEPRIQTTFVSVPYSEFLSKVNSNQVQKVEVDGVQVLFKLRDDGKWQESETSRLSQSSESLLRTVAPTKRVVYSTTRPGDIKTPYEKMLGNNVEFGSPEKRSGGFFNSALIALFYIAVLAGLIRFPVSFSTSSTGQLRTRKAGGPDGGKVSGGGETITFADVAGVDEAKEELEEIVEFLRNPEKYVRLGARPPRGVLLVGLPGTGKTLLAKAVAGEAEVPFISCSASEFVELYVGMGASRVRDLFARAKKEAPSIIFIDEIDAVAKSRDGKFRMGSNDEREQTLNQLLTEMDGFDSNSAVIVLGATNRADVLDPALRRPGRFDRVVTVETPDKIGRESILRVHVSKKELPLGDDVNLGSIASMTTGFTGADLANLVNEAALLAGRKNKTNVEKIDFIQAVERSIAGIEKKSARLKGNEKAVVARHEAGHAVVGTAVANLLTGQPRVEKLSILPRTGGALGFTYIPPTSEDRYLLFIDELLGRLVTLLGGRAAEEVVYSGRISTGAFDDIRRATDMAYKAVAEYGLNQKIGPVSVATLSGGGIDDSGGSPWGRDQGKLVDLVQKEVTILLQSALDVALSVVRANPDVLEGLGAQLEEKEKVEGEELQKWLSMVVAPEELAVFVEGKQELLLPAQASSS”, the protein production result is reported as “failed”.

Regarding “MTTTIHMLTIIILCGIVTWLTRIIPFVMISKVHLSERVVKWLSFIPITLFTALIIDGVLVQQEGVMGYTINMPFLITMIPTIVVAIVSRSLTITILSGIIIMALLRWVF”, the protein production result is recorded as “failed”.

Regarding “MTTTMSTLPVVLVDEILARVPITSLRSLRSTCKKWEASSKTNLVGGKATARKSSHVGFILIGDKICSMKLDLNGGDDFVDTSVNQVSAFDGFAISQLFHCDGLLFCISNNHYSNYTLMVCNMYLGETRLIQNRSLFESYQNFCSYAFGYDSSKNRNHKILRNNSVSGGYEIYSLKSDSWKDLNVDLEKSIHLWRLGSVSLKGNAYFRVIKVIEEGVWEYNLLCFDFTRESFGKLLSLPFESLGDEGEGIMVISCVRDDHLAVLYQRDTLGIWISTEIEPNKVSWREFLQVDLATLDGFPDVFIAGRFIVDEEKQVVVVFGQETELDLNHGNAFIFGRDGYFTSFTVGDAPPEDFTSYVPSLVSLQIDKTGKRKARDD”, the protein production result is recorded as “failed”.

Consider “MTTTTAQPAASLAAALEHAERLLEVDPVMAAEQARAILEVVPRHADTTRVLAAAQRLSGDAEGGLATVAPLAMALPNLPLAQLELALCLERLGRTAEAARAFDRVSALEPRLSEAWRGLSESLELLGDRQGAERALARQLRASTRDPLLVEAATALAEDRLGEAERLLRDRLKADAGDVAAIRMLAETGARLGRYADAEALLTRCMELAPNFAAARHNLATMLYRQNKNLEALAQIEQLVAKDARHPGYANLYAAILARLGEYDRAIAVYGQVLADYPNQPKGWMSYGHALKTVGRQADSVAAYRKALDLAPTLGEVWWSLANLKTVRFTPEDLAAMSQALEAEGLSEDDRLHLHYALGKAQEDAQDWDASFQHYAAGAAIRREQLDYDADENTADTVRTKAVFSPAFIAARGGQGCAAPDPIFVVGLPRSGSTLVEQILASHSLVEGTMELPDLIVMARRLGGKTAKRAESTYPESLAELSPEDLRALGEEFLERTRIQRKTDKPFFIDKMPNNFAHTGLIHLILPNAKIIDARRHPLGCCFSGFKQHFARGQAFSYDLTDIGRYYADYVDLMAHFDAVLPGRVHRVIYERMIADPEAEIRALLDHCGLPFEEACLSPHENDRAVRTASSEQVRRPIFKDAVEHWQKFESHLGPLKQALGPVLTAYPDAPVI”, for which the protein production result was “failed”.

Regarding “MTTVAVSSLPQGTSVTLRNVTKSFGTTKVLNGLDLNIHSGELVALLGPSGCGKSTLLRIIAGFEAADQGSVLLDDVDVSGVPTNRRDIGLVFQAYSLFPHLNAVENVMYGLSIRHVAKTEAKSSAVELLASVGLADYADRYPAQLSGGQQQRVALARALATKPRVLLLDEPLSALDAKVRVQLRDEIRALQLETHTTTIMVTHDQEEALVMADRIAVMYNGRFEQVGTPAEIYHSPATAFVAGFVGSMNVLPGVLSTDGTAQTIGCRVPVHAAAGAATLNPGPVDVFVRPEELRLQIANDDLNDHDAVLGTVTSTVLRGAFTSVMVAMGDGLHLRVDLPSKDAQLFTPGCSVMVRIADEPMLCTARRVECVA”, the protein production result was “failed”.

For “MTVAPFDTAKLDRLMEEAGIDVIAATSKHNTQYLMGGYKFIFFAAMDAIGHSRYLPMVIYEKGAPDHSAYVGNRMEGAEHQNNPFWTPAVHTATWGTQDAAGLAVEHLKKIGKASGRIGIEPAFLPSDARDLLASRLDGARFVDATHVLERLRAVKTADELAKLRRASELITDSMLATIAAARAGSTKLEIIEQLRREETNRGLHFEYCLLTLGASHNRAGSPQAWAEGEILSIDSGGNYHGYIGDLCRMGVLGEPDAELEDLLAEVERIQQAAFAKVRAGVLGSEMIVAAEAELKASPSAAFTDFFCHGMGLITHEAPFLMTNHPVAYEGIDADKPLEAGNVISVETTMLHPKRGFIKLEDTLAITDKGYEMFGDRGRGLEHHHHHH”, the protein production entry is recorded as “failed”.

On to “MTVAQQAPSALNFDCETGNYHTFCPISCVSWLYQKIEDSFFLVIGTKTCGYFLQNAMGVMIFAEPRYAMAELEEGDISAQLKDYEELKRLCLQIKRDRNPSVIVWIGTCTTEIIKMDLEGLAPQLEAEIGIPIVTARANGLDYAFTQGEDTVLASMAHKCPTSAQVQGEDKEERNAIQKLLTFGRKADQEKVESEYVDHQPLVLFGSLPDPVVTNLTLELKKQGVKVSGWLPAKRYTELPVIDEGYYVAGVNPFLSRTATTLMRRRKCKLIGAPFPIGPDGTRAWIEKICSVLGIEPQGLEEREAQIWASLEDYIQLIRGKSVFFMGDNLLEVSLARFLIRCGMTCPEIGIPYMDKRYQAAELALLEKTCSDMGVPLPNIVEKPDNYNQIQRIKALQPDLVITGMAHANPLEAQGINTKWSVEFTFAQIHGFTNARDILELATRPLRRNSQLGELGWDKLIAKDVPAQV”, for which the protein production entry is reported as “failed”.

In the case of “MTVITLVLGMLLPAVVSILMLMASTQSRISEEENMMRAGLVEGMGLQVDEVVDALAQSLEVIAANGGADADDATRWTRLLQASRAFGKQFLEFHVANPNGDVISSSASLPEGINVADRAYFSTSLATEGMVASEGLVSRHTGQIALYFALAVRSDEEAHSGVVFAGFNGEVFGDMLRKAGPRSDGLTVFVLDRNGDSVYEHLPSGGRHPVHIPPADLRDCADGRRAWLEFGGTRHAVSVMAKRLATGEAPYLYLLVSTPDESFFSLSTLRGVTPLLLGTLCVALAALAAANRRIVHPLESLTRKVQAIEAGQPLPETAMESVREIGGLQTAVTRMAQAISQREQELAWFATHDDLTGLANRKALHEMLAARLDRLEEGASETVAVIFIDIDRFKAINDSMGHTWGDNVIAAFAARLGAFMHPLHAFCARVGGDEFVVVPDASATHNVVRDTRALLAHLGTPYDINGREVRLSASAGVLFVGDPGESPDVIIRNANAAMHRSKERGFGRISIFRPLHLDSYMLRLDIERELPLAAATGQLHMVYQPIVNASDGSLHSFEALMRWNHPRHGSLSPATFITVAEQTGHVGLLGDFALREAGACVRRFGEAGLLTPGLRFGVNISPAHLMAQDFLSDIESVLDAVSVPGDRITLEVTESALISTGAELMGRLETLAKRGLNFAIDDYGAGYSNIQYLASEHFRVIKIDKSLIDEVHLRDRMRAIVRSTVQLAHSLGCKIVAEGVETHAQANLLARLGCDYLQGYLFSRPVPETDAMRLAIRAMDQGTLLPPEAHPDA”, the protein production entry was “failed”.

“MTVKAMALNTNQLFAYLNRGDIAEFKFSPLFTTLFFPNVATFSTQNIMLDTLDIEEVTMSAFCSPMVGSQVQRDKGYETSTIKPGYMKPKHEIDPTKTIMRMAGEDPAQLNDPTYRRMRLITGNMRRQINAIKARVEWLAVNAVTTGKNIIEGEGIERYEIDWKIPEKNIIEQADGKKWSEQDKETHYPIYDIELYADQAGCPANVMIMGAEVWRTLRSFKKFRELYDLSRGSESAAELACKNLGEVVSFKGYLGDLALIVYSGKYTDSDGTEKYFLEPDLLVLGNTNNKGLVAYGAIMDQEAVRTGATQNMFYPKNWIEDGDPAIEYVQTHSAPQPVPADIRKFVTVKIA”: the protein production result was “not failed”.

For “MTVLYKGSLKQNNDPFHVTLLSKEHIEQILFLQNVVVEGLEDKSRLQPLSQEEFQYILEGNGMMIGAFIKNELIAFRALLVPPIDDEHLGLDIGLPESELHRVIYQEISNVHPNCRGNGMQKILATVIMDELQKENGKYDYVCCTVAPFNIPSLKDKFSQGMEIAALKEKYGGSMRYVFVKELREDKEKDWTEIKSVPMNNAGGQQALLSEGYRGYEMEKVDEDFVVKFGR”, the protein production result is “failed”.

Turning to “MTVNVENVEPELNIEIGPNWFASVMGTGIIANAAVGLPMVGQYLGQAGLVIWVIASLMLIVMLLLKAVQTITNPHIIKRQFNDPVMAQFFGAPPMALLTIAGGTLLFGHHFFAQDTLMVIAWSLWITGTIVGMMTAVIIPYRLFTHHEVRGDAAFGGWLMPVVPPMVSAAIGAMFIPHVQDTLLQQTLLYACYAMFGTSLIAAMIILTLIWGRLVHSGTSGGARVPTLWLVLGPLGQSITAAGALGAVALAVVEQPIAGSLNTMAILYGVPVWGFAFYWSILASFLTLRALRRKMPFALTWWAFTFPVGTCVTGTTQLALHTGLPAFEWAAVILFAGLLCAWVIAALGTIKGIKTGHIMKNPVSSPVIIAKKGPR”, the protein production entry is reported as “failed”.

Turning to “MTVRVCKMDGEVMPVVVVQNATVLDLKKAIQRYVQLKQEREGGVQHISWSYVWRTYHLTSAGEKLTEDRKKLRDYGIRNRDEVSFIKKLGQK”, the protein production result is listed as “not failed”.

As for “MTVTATSVDEPEQLEPQAAPASRGARRVRRLVPAAAATLSGVLLYVSFPPRTLWWLALPAFAVLGWALRDRTWKAGLGLGYLFGLGFLLPLLVWTGVEVGPGPWLALAVVEAVFVALVGAGIAMVSRLPAWPLWAAALWIAGEAARARAPFGGFPWGKIAFGQADGVFLPLAAAGGTPVLGFAVVLCGFGLYEIVRQVVDGRRTGVVRRGAAAVALLSVAVPVVGALAARSLVSDKAEDGTATVAVIQGNVPRSGLEFNAQRRAVLDHHARETERLAAKIKAGKVAQPDFVLWPENSSDIDPFTNPDARAVIDSAAKAVGVPISVGGVVERDGKLYNEQILWDPAKGALDTYDKRQVQPFGEYLPLRSLLGAINKNWTSMVRQDFSRGTEPGVFTMAGTKVGLATCYEAAFDWAVRDNITHGAQIISVPSNNATFDRSEMTYQQLAMSRVRAVEHSRTVTVPVTSGVSAVIMPDGKITQKTGMFVADSLVQKVPLRSSQTPATRLGILPEMVLVLVAAGGLGWSVAAVVRGRRNDALQG”, the protein production result was “failed”.

On to “MTVWRSWRLLGVSGDSKPTDGPVSRFLNRRIASAIASAIIALNLPLTPNMLSLISFLTAAAAALFIAGGQLLVGGLLVQLSSVLDGVDGIVARRLRAASKAGGFLDTMLDRYADTVIYLALAYAAVATHGLETWAVLTAVLAVSGDIMVSYLHTRGERDAGVHPSLVGPLDSLASRDVRLLIVAVITAAGRPLEAMAAVALLSHAYVAVKSIYLFSLLKSKGV”, for which the protein production result was “failed”.

For “MTWKPNVTVAAVIEQDDKYLLVEEIPRGTAIKLNQPAGHLEPGESIIQACSREVLEETGHSFLPEVLTGIYHWTCASNGTTYLRFTFSGQVVSFDPDRKLDTGIVRAAWFSIDEIRAKQAMHRTPLVMQCIEDYHAGKRYPLDILQYYD”, the protein production entry is “not failed”.
